Molecular target: human ILT3 on cells (human) (UniProt Q8NHJ6)
Test: flow cytometry on THP1 cells, enumeration of the ILT3 antigen density with clone ZM4.1; unit not given

Chain of human ILT3 on cells (human) (Q8NHJ6 22-448 D223G/Q414R): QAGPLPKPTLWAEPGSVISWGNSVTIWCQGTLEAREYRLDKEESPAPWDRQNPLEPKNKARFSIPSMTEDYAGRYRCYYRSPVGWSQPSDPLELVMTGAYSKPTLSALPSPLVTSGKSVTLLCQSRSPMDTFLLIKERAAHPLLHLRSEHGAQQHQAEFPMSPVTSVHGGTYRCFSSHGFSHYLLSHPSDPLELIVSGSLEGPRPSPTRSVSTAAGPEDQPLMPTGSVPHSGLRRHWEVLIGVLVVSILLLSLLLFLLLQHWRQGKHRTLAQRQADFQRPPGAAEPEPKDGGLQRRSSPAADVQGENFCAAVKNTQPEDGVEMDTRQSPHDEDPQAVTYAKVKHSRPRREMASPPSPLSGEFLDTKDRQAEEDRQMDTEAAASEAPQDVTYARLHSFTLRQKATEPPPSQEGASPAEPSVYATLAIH

mouse anti-ILT3 monoclonal antibody, clone ZM4.1
Ag density: 147000
